Source: patent US20230256092A1 (SHIONOGI, published 2023)
Read-outs that look alike come from different tables or passages of the source.

T1: human CCR4 (human, UniProt P51679 1-360)
T1 construct: full length, on Expi293 cells; also called hCCR4
T1 sequence: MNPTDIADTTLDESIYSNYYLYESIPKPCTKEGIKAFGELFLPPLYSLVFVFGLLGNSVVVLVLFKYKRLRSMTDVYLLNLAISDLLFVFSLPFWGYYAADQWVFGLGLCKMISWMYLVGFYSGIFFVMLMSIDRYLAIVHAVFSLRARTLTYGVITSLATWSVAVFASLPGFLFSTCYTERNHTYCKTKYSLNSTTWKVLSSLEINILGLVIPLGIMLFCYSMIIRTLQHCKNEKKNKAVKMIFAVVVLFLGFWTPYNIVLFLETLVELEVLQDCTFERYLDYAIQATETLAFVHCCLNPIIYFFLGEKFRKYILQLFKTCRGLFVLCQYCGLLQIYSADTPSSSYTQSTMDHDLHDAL

T2: mouse CCR8 (mouse, UniProt P56484 1-353)
T2 construct: full length, on Expi293 cells; also called mCCR8
T2 sequence: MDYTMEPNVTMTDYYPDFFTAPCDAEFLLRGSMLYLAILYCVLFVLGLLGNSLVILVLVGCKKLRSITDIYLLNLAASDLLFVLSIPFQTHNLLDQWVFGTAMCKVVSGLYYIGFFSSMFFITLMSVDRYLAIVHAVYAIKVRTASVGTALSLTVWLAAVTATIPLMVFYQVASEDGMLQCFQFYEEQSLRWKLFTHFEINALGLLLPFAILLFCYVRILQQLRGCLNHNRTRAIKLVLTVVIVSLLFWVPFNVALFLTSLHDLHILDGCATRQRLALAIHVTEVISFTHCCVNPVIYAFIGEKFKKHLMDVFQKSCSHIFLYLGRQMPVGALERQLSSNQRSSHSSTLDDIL

T3: N-ter hCCR4-hCCR8 (human)
T3 construct: chimera on Expi293 cells; also called human CCR8 with the N-terminal region substituted with that of human CCR4
T3 chain: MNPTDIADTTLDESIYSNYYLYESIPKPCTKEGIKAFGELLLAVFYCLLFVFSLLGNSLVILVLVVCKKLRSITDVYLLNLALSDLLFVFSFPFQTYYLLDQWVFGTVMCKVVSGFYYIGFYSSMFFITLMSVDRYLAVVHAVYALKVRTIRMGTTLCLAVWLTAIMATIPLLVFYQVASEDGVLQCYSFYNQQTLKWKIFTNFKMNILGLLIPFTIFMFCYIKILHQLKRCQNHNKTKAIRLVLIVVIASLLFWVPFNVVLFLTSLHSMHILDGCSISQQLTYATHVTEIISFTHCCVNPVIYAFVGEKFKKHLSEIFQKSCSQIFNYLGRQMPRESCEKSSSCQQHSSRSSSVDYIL


Assays:
human CCR8 [1] = molecular target: T4, human CCR8 (human, UniProt P51685 1-355); assay: cell-based or functional assay
human CCR8 [2] = molecular target: T4, human CCR8; assay: cell-based or functional assay; remark: listed apart in the source
human CCR8 [3] = molecular target: T4, human CCR8; assay: cell-based or functional assay; remark: listed apart in the source
human CCR8 [4] = molecular target: T4, human CCR8; assay: cell-based or functional assay; remark: listed apart in the source
human CCR4 = molecular target: T1, human CCR4; assay: flow cytometry on Expi293 transfectants
mouse CCR8 = molecular target: T2, mouse CCR8; assay: flow cytometry on Expi293 transfectants
N-ter hCCR4-hCCR8 = molecular target: T3, N-ter hCCR4-hCCR8; assay: flow cytometry on Expi293 transfectants
hCCR8 (Y17A) = molecular target: T5, hCCR8 (Y17A) (human, UniProt P51685 1-355); assay: flow cytometry on Expi293 transfectants
T5 construct: also called mutant in which Y at position 17 of human CCR8 is substituted for A

loop3 hCCR4-hCCR8 = molecular target: T6, loop3 hCCR4-hCCR8 (human, UniProt P51685 1-355); assay: FCM, Expi293 transfectants; blank cell = same binding activity as wild-type hCCR8
T6 construct: chimera on Expi293 cells; hCCR8 264-280 replaced

loop2 hCCR4-hCCR8 = molecular target: T7, loop2 hCCR4-hCCR8 (human, UniProt P51685 1-355); assay: FCM, Expi293 transfectants; Δ = significantly reduced binding activity vs wild-type hCCR8
T7 construct: chimera on Expi293 cells; hCCR8 172-202 replaced; also called loop2-human CCR4-substituted human CCR8

loop1 hCCR4-hCCR8 = molecular target: T8, loop1 hCCR4-hCCR8 (human, UniProt P51685 1-355); assay: as above
T8 construct: chimera on Expi293 cells; hCCR8 94-107 replaced; also called loop1-human CCR4-substituted human CCR8

IC50 (nM), Ca2+ influx by 200 nM hCCL1 (human CCR8 [2])	IC50 (nM), Ca2+ influx by 200 nM hCCL1 (human CCR8 [3])	Binder	also measured
		2-7B (antibody, V domains shown) VH: EVQLVESDGGLVQPGRSLKLSCAASGFTFSDYYMAWVRQAPTKGLEWVATITYDVYSTYYRDSVKGRFTISRDNAKSTLYLQMDSLRSEDTATYYCARHGGDGYNSGNWFAYWGQGTLVTVSS VL: DIVLTQSPALAVSLGQRATISCRASQSVSISRYNIMHWYQQKPGQQPKLLIYRASNLASGIPARFSGSGSGTDFTLTINPVQADDIATYYCQQSRESPPTFGGGTKLELKR	IC50 (nM), Ca2+ influx by 200 nM hCCL1 (human CCR8 [1]): 0.23 nM
0.16 nM		h10A11 (IGKV3-20/IGHV3-15 T94R) (antibody, V domains shown) VH: EVQLVESGGALVKPGGSLRLSCAASGFTFSTYALYWVRQAPGKGLEWVGRIRSKSNNYATYYADSVKDRFTISRDDSKNTLYLQMNSLKTEDTAVYYCTRARFYYSDYGYAMDYWGQGTLVTVSS VL: EIVLTQSPGTLSLSPGERATLSCRSSKSLLHSNGNTYLYWYQQKPGQAPRLLIYRMSNLASGIPDRFSGSGSGTDFTLTISRLEPEDFAVYYCMQHLEYPLTFGQGTKVEIKR	
	0.21 nM	humanized 10A11 mutant (IGKV3-20 N53Q, G29L/IGHV3-15 T94R) (antibody, V domains shown) VH: EVQLVESGGALVKPGGSLRLSCAASGFTFSTYALYWVRQAPGKGLEWVGRIRSKSNNYATYYADSVKDRFTISRDDSKNTLYLQMNSLKTEDTAVYYCTRARFYYSDYGYAMDYWGQGTLVTVSS VL: EIVLTQSPGTLSLSPGERATLSCRSSKSLLHSNLNTYLYWYQQKPGQAPRLLIYRMSQLASGIPDRFSGSGSGTDFTLTISRLEPEDFAVYYCMQHLEYPLTFGQGTKVEIKR	
0.16 nM		h10A11 (IGKV1-39/IGHV3-73) (antibody, V domains shown) VH: EVQLVESGGGLVQPGGSLKLSCAASGFAFNTYALYWVRQASGKGLEWVGRIRSKSNNYATYYADSVKDRFTISRDDSKNTAYLQMNSLKTEDTAVYYCTRARFYYSDYGYAMDYWGQGTLVTVSS VL: DIQMTQSPSSLSASVGDRVTITCRSSKSLLHSNGNTYLYWYQQKPGKAPKLLIYRMSNLASGVPSRFSGSGSGTDFTLTISSLQPEDFATYYCMQHLEYPLTFGQGTKLEIKR	
0.2 nM		h10A11 (IGKV1-39/IGHV3-15 T94R) (antibody, V domains shown) VH: EVQLVESGGALVKPGGSLRLSCAASGFTFSTYALYWVRQAPGKGLEWVGRIRSKSNNYATYYADSVKDRFTISRDDSKNTLYLQMNSLKTEDTAVYYCTRARFYYSDYGYAMDYWGQGTLVTVSS VL: DIQMTQSPSSLSASVGDRVTITCRSSKSLLHSNGNTYLYWYQQKPGKAPKLLIYRMSNLASGVPSRFSGSGSGTDFTLTISSLQPEDFATYYCMQHLEYPLTFGQGTKLEIKR	
	0.29 nM	humanized 10A11 mutant (IGKV3-20 N53Q, N28K/IGHV3-15 T94R) (antibody, V domains shown) VH: EVQLVESGGALVKPGGSLRLSCAASGFTFSTYALYWVRQAPGKGLEWVGRIRSKSNNYATYYADSVKDRFTISRDDSKNTLYLQMNSLKTEDTAVYYCTRARFYYSDYGYAMDYWGQGTLVTVSS VL: EIVLTQSPGTLSLSPGERATLSCRSSKSLLHSKGNTYLYWYQQKPGQAPRLLIYRMSQLASGIPDRFSGSGSGTDFTLTISRLEPEDFAVYYCMQHLEYPLTFGQGTKVEIKR	
	0.12 nM	humanized 10A11 antibody (light chain variable region: IGKV4-1 N53Q+G29R/heavy chain variable region: IGHV3-15 T94R) (antibody, V domains shown) VH: EVQLVESGGALVKPGGSLRLSCAASGFTFSTYALYWVRQAPGKGLEWVGRIRSKSNNYATYYADSVKDRFTISRDDSKNTLYLQMNSLKTEDTAVYYCTRARFYYSDYGYAMDYWGQGTLVTVSS VL: DIVMTQSPDSLAVSLGERATINCRSSKSLLHSNRNTYLYWYQQKPGQPPKLLIYRMSQLASGVPDRFSGSGSGTDFTLTISSLQAEDVAVYYCMQHLEYPLTFGQGTKLEIKR	
0.21 nM		h10A11 (IGKV2-40/IGHV3-73) (antibody, V domains shown) VH: EVQLVESGGGLVQPGGSLKLSCAASGFAFNTYALYWVRQASGKGLEWVGRIRSKSNNYATYYADSVKDRFTISRDDSKNTAYLQMNSLKTEDTAVYYCTRARFYYSDYGYAMDYWGQGTLVTVSS VL: DIVMTQTPLSLPVTPGEPASISCRSSKSLLHSNGNTYLYWYLQKPGQSPQLLIYRMSNLASGVPDRFSGSGSGTDFTLKISRVEAEDVGVYYCMQHLEYPLTFGQGTKLEIKR	
0.3 nM		h10A11 (IGKV2-40/IGHV3-15 T94R) (antibody, V domains shown) VH: EVQLVESGGALVKPGGSLRLSCAASGFTFSTYALYWVRQAPGKGLEWVGRIRSKSNNYATYYADSVKDRFTISRDDSKNTLYLQMNSLKTEDTAVYYCTRARFYYSDYGYAMDYWGQGTLVTVSS VL: DIVMTQTPLSLPVTPGEPASISCRSSKSLLHSNGNTYLYWYLQKPGQSPQLLIYRMSNLASGVPDRFSGSGSGTDFTLKISRVEAEDVGVYYCMQHLEYPLTFGQGTKLEIKR	
0.7 nM		h10A11 (IGKV1-16/IGHV3-15 T94R) (antibody, V domains shown) VH: EVQLVESGGALVKPGGSLRLSCAASGFTFSTYALYWVRQAPGKGLEWVGRIRSKSNNYATYYADSVKDRFTISRDDSKNTLYLQMNSLKTEDTAVYYCTRARFYYSDYGYAMDYWGQGTLVTVSS VL: DIQMTQSPSSLSASVGDRVTITCRSSKSLLHSNGNTYLYWFQQKPGKAPKSLIYRMSNLASGVPSRFSGSGSGTDFTLTISSLQPEDFATYYCMQHLEYPLTFGQGTKLEIKR	
0.2 nM		h10A11 (IGKV2-28/IGHV3-73) (antibody, V domains shown) VH: EVQLVESGGGLVQPGGSLKLSCAASGFAFNTYALYWVRQASGKGLEWVGRIRSKSNNYATYYADSVKDRFTISRDDSKNTAYLQMNSLKTEDTAVYYCTRARFYYSDYGYAMDYWGQGTLVTVSS VL: DIVMTQSPLSLPVTPGEPASISCRSSKSLLHSNGNTYLYWYLQKPGQSPQLLIYRMSNLASGVPDRFSGSGSGTDFTLKISRVEAEDVGVYYCMQHLEYPLTFGQGTKVEIKR	
	0.19 nM	humanized 10A11 mutant (IGKV3-20 N53Q, G29R/IGHV3-15 T94R) (antibody, V domains shown) VH: EVQLVESGGALVKPGGSLRLSCAASGFTFSTYALYWVRQAPGKGLEWVGRIRSKSNNYATYYADSVKDRFTISRDDSKNTLYLQMNSLKTEDTAVYYCTRARFYYSDYGYAMDYWGQGTLVTVSS VL: EIVLTQSPGTLSLSPGERATLSCRSSKSLLHSNRNTYLYWYQQKPGQAPRLLIYRMSQLASGIPDRFSGSGSGTDFTLTISRLEPEDFAVYYCMQHLEYPLTFGQGTKVEIKR	
		27G1 (antibody, V domains shown, mouse hybridoma antibody, purified) VH: EVQLVESGGRLVQPKGSLKLSCAASGFAFNTYAMYWIRQAPGKGLEWVARIRSKSNNYATYYADSVKDRFTISRDDSQSMLYLQMNNLKTEDTAMYYCVRARFYYSDYGYAMDYWGQGTSVTVSS VL: DIVMTQAAPSVPVTPGESVSISCRSSKSLLHSNGNTYLYWFLQRPGQSPQLLIYRMSNLASGVPDRFSGSGSGTAFTLRISRVEAEDVGVYYCMQHLEYPLTFGAGTKLELKR	Neutralizing activity IC50 (nM), Ca2+ influx by 100 nM hCCL1 (human CCR8 [4]): 0.09 nM; binding result (human CCR4): no binding; binding result (mouse CCR8): no binding; binding result (N-ter hCCR4-hCCR8): no binding; binding result (hCCR8 (Y17A)): no binding; binding result (loop3 hCCR4-hCCR8): binds; binding result (loop2 hCCR4-hCCR8): binds; binding result (loop1 hCCR4-hCCR8): binds
